Measurements published in the supplement of paper PMC9112550, “Optimization of the antimicrobial peptide Bac7 by deep mutational scanning” (BMC Biology, 2022).

test system: Escherichia coli TOP10; assay: shrunken log2 fold change of peptide-encoding DNA abundance (4.5 h post-induction vs induction); higher = less antimicrobial activity (less host growth inhibition); conditions: time post-induction: 4.5 h; library: site-saturation at positions 5, 18, 19, 20
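Further: peptides expressed intracellularly from a pBAD plasmid library in pooled LB shake-flask culture, induced with 0.3% L-arabinose, DNA abundance read by NGS, three biological replicates, DESeq2 with apeglm shrinkage.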

Sequence | shrunken log2 fold change
RRIRTRPPRLPRPRPRPAQWPRP | 0.0699
RRIRTRPPRLPRPRPRPARDPRP | 0.146
RRIRTRPPRLPRPRPRPARWPRP | 0.471
RRIRTRPPRLPRPRPRPASFPRP | 0.133
RRIRTRPPRLPRPRPRPASTPRP | -0.0927
RRIRTRPPRLPRPRPRPAVIPRP | 0.0431
RRIRTRPPRLPRPRPRPAVNPRP | 0.000461
RRIRTRPPRLPRPRPRPAVVPRP | 0.0328
RRIRTRPPRLPRPRPRPAWPPRP | 0.444
RRIRTRPPRLPRPRPRPAYDPRP | -0.251
RRIRTRPPRLPRPRPRPAYIPRP | 0.412
RRIRTRPPRLPRPRPRPCACPRP | 0.0169
RRIRTRPPRLPRPRPRPCASPRP | 0.184
RRIRTRPPRLPRPRPRPCCKPRP | -0.279
RRIRTRPPRLPRPRPRPCDCPRP | -0.0712
RRIRTRPPRLPRPRPRPCEEPRP | 0.0871
RRIRTRPPRLPRPRPRPCEPPRP | -0.0796
RRIRTRPPRLPRPRPRPCFQPRP | -0.232
RRIRTRPPRLPRPRPRPCGIPRP | 0.0859
RRIRTRPPRLPRPRPRPCGLPRP | 0.165
RRIRTRPPRLPRPRPRPCGYPRP | -0.0816
RRIRTRPPRLPRPRPRPCICPRP | -0.119
RRIRTRPPRLPRPRPRPCLSPRP | 0.079
RRIRTRPPRLPRPRPRPCMQPRP | 1.86
RRIRTRPPRLPRPRPRPCMWPRP | 0.0746

Sequence | shrunken log2 fold change
RRIRTRPPRLPRPRPRPCNVPRP | -0.00968
RRIRTRPPRLPRPRPRPCPSPRP | -0.0705
RRIRTRPPRLPRPRPRPCPYPRP | -0.411
RRIRTRPPRLPRPRPRPCQDPRP | -0.13
RRIRTRPPRLPRPRPRPCQWPRP | -0.107
RRIRTRPPRLPRPRPRPCSPPRP | -0.0356
RRIRTRPPRLPRPRPRPCTGPRP | -0.0103
RRIRTRPPRLPRPRPRPCVAPRP | 0.192
RRIRTRPPRLPRPRPRPCVNPRP | -0.0913
RRIRTRPPRLPRPRPRPCVPPRP | -0.109
RRIRTRPPRLPRPRPRPCWKPRP | -0.0202
RRIRTRPPRLPRPRPRPDARPRP | 0.0965
RRIRTRPPRLPRPRPRPDATPRP | 0.823
RRIRTRPPRLPRPRPRPDCDPRP | 0.209
RRIRTRPPRLPRPRPRPDCFPRP | -0.138
RRIRTRPPRLPRPRPRPDDCPRP | -0.0459
RRIRTRPPRLPRPRPRPDDRPRP | 0.0143
RRIRTRPPRLPRPRPRPDDVPRP | -0.102
RRIRTRPPRLPRPRPRPDFFPRP | 0.175
RRIRTRPPRLPRPRPRPDGVPRP | -0.0136
RRIRTRPPRLPRPRPRPDHAPRP | 0.283
RRIRTRPPRLPRPRPRPDHLPRP | 0.0101
RRIRTRPPRLPRPRPRPDIFPRP | -0.234
RRIRTRPPRLPRPRPRPDITPRP | -0.236
RRIRTRPPRLPRPRPRPDKWPRP | 0.0238

Sequence | shrunken log2 fold change
RRIRTRPPRLPRPRPRPDLPPRP | 0.0603
RRIRTRPPRLPRPRPRPDLWPRP | 0.27
RRIRTRPPRLPRPRPRPDMAPRP | -0.0628
RRIRTRPPRLPRPRPRPDNTPRP | -0.191
RRIRTRPPRLPRPRPRPDNWPRP | -0.244
RRIRTRPPRLPRPRPRPDQHPRP | -0.626
RRIRTRPPRLPRPRPRPDQRPRP | -0.0808
RRIRTRPPRLPRPRPRPDRCPRP | -0.0274
RRIRTRPPRLPRPRPRPDRDPRP | -0.126
RRIRTRPPRLPRPRPRPDSIPRP | -0.0295
RRIRTRPPRLPRPRPRPDTGPRP | -0.0906
RRIRTRPPRLPRPRPRPDTPPRP | -0.193
RRIRTRPPRLPRPRPRPDTYPRP | -0.202
RRIRTRPPRLPRPRPRPDYAPRP | 0.0553
RRIRTRPPRLPRPRPRPDYDPRP | 0.00888
RRIRTRPPRLPRPRPRPEAIPRP | -0.00172
RRIRTRPPRLPRPRPRPECWPRP | 0.53
RRIRTRPPRLPRPRPRPEDFPRP | -0.00101
RRIRTRPPRLPRPRPRPEDGPRP | 0.0244
RRIRTRPPRLPRPRPRPEEAPRP | -0.0948
RRIRTRPPRLPRPRPRPEESPRP | -0.0116
RRIRTRPPRLPRPRPRPEGDPRP | 0.0354
RRIRTRPPRLPRPRPRPEGYPRP | -0.104
RRIRTRPPRLPRPRPRPEHYPRP | -0.0177
RRIRTRPPRLPRPRPRPEKMPRP | 0.171

Sequence | shrunken log2 fold change
RRIRTRPPRLPRPRPRPEKVPRP | -0.292
RRIRTRPPRLPRPRPRPELNPRP | 0.195
RRIRTRPPRLPRPRPRPELPPRP | 0.499
RRIRTRPPRLPRPRPRPELQPRP | -0.0178
RRIRTRPPRLPRPRPRPENKPRP | -0.178
RRIRTRPPRLPRPRPRPEPGPRP | 0.0826
RRIRTRPPRLPRPRPRPEQNPRP | 0.189
RRIRTRPPRLPRPRPRPERRPRP | 0.0791
RRIRTRPPRLPRPRPRPERTPRP | -0.0336
RRIRTRPPRLPRPRPRPETWPRP | -0.0622
RRIRTRPPRLPRPRPRPEVNPRP | 0.131
RRIRTRPPRLPRPRPRPEWCPRP | 0.272
RRIRTRPPRLPRPRPRPEYIPRP | 0.00825
RRIRTRPPRLPRPRPRPEYLPRP | -0.0156
RRIRTRPPRLPRPRPRPFADPRP | -0.112
RRIRTRPPRLPRPRPRPFAGPRP | -0.0338
RRIRTRPPRLPRPRPRPFAQPRP | -0.178
RRIRTRPPRLPRPRPRPFCPPRP | -0.279
RRIRTRPPRLPRPRPRPFFAPRP | 0.223
RRIRTRPPRLPRPRPRPFFFPRP | 0.0893
RRIRTRPPRLPRPRPRPFGGPRP | -0.0397
RRIRTRPPRLPRPRPRPFHPPRP | -0.335
RRIRTRPPRLPRPRPRPFIIPRP | -0.919
RRIRTRPPRLPRPRPRPFIKPRP | -0.57
RRIRTRPPRLPRPRPRPFKGPRP | -0.264

Sequence | shrunken log2 fold change
RRIRTRPPRLPRPRPRPFLCPRP | -0.978
RRIRTRPPRLPRPRPRPFLMPRP | -0.378
RRIRTRPPRLPRPRPRPFNQPRP | -0.163
RRIRTRPPRLPRPRPRPFQEPRP | 0.00783
RRIRTRPPRLPRPRPRPFRPPRP | 0.0775
RRIRTRPPRLPRPRPRPFTIPRP | -0.293
RRIRTRPPRLPRPRPRPFTSPRP | -0.0603
RRIRTRPPRLPRPRPRPFVKPRP | -0.838
RRIRTRPPRLPRPRPRPFVLPRP | -0.296
RRIRTRPPRLPRPRPRPFVWPRP | 0.00322
RRIRTRPPRLPRPRPRPFWMPRP | -0.111
RRIRTRPPRLPRPRPRPGAEPRP | 0.25
RRIRTRPPRLPRPRPRPGCGPRP | 0.385
RRIRTRPPRLPRPRPRPGDAPRP | 0.206
RRIRTRPPRLPRPRPRPGGEPRP | 0.443
RRIRTRPPRLPRPRPRPGGIPRP | 0.0232
RRIRTRPPRLPRPRPRPGIAPRP | -0.0278
RRIRTRPPRLPRPRPRPGINPRP | -0.324
RRIRTRPPRLPRPRPRPGIVPRP | -0.184
RRIRTRPPRLPRPRPRPGMVPRP | 0.279
RRIRTRPPRLPRPRPRPGNIPRP | -0.0496
RRIRTRPPRLPRPRPRPGNKPRP | -0.0505
RRIRTRPPRLPRPRPRPGNMPRP | -0.0393
RRIRTRPPRLPRPRPRPGPAPRP | 0.35
RRIRTRPPRLPRPRPRPGPMPRP | 0.101

Sequence | shrunken log2 fold change
RRIRTRPPRLPRPRPRPGQGPRP | 0.0576
RRIRTRPPRLPRPRPRPGRFPRP | -0.0311
RRIRTRPPRLPRPRPRPGSDPRP | 0.424
RRIRTRPPRLPRPRPRPGSQPRP | 0.0756
RRIRTRPPRLPRPRPRPGTQPRP | -0.036
RRIRTRPPRLPRPRPRPGVAPRP | 0.639
RRIRTRPPRLPRPRPRPGVHPRP | -0.055
RRIRTRPPRLPRPRPRPGVIPRP | 0.0978
RRIRTRPPRLPRPRPRPGVYPRP | -0.116
RRIRTRPPRLPRPRPRPGYLPRP | 0.0359
RRIRTRPPRLPRPRPRPGYPPRP | -0.197
RRIRTRPPRLPRPRPRPGYRPRP | -0.0981
RRIRTRPPRLPRPRPRPGYVPRP | -0.526
RRIRTRPPRLPRPRPRPHAWPRP | 3.26
RRIRTRPPRLPRPRPRPHCNPRP | -0.453
RRIRTRPPRLPRPRPRPHCVPRP | -0.192
RRIRTRPPRLPRPRPRPHFIPRP | -0.321
RRIRTRPPRLPRPRPRPHGGPRP | 0.384
RRIRTRPPRLPRPRPRPHGSPRP | -0.01
RRIRTRPPRLPRPRPRPHHEPRP | -0.103
RRIRTRPPRLPRPRPRPHHHPRP | -0.924
RRIRTRPPRLPRPRPRPHHWPRP | -0.0973
RRIRTRPPRLPRPRPRPHIFPRP | 2.13
RRIRTRPPRLPRPRPRPHKLPRP | -0.236
RRIRTRPPRLPRPRPRPHKVPRP | -0.00818
